Results taken from patent publication US20210275545A1 (YEDA RESEARCH AND DEVELOPMENT, published 2021).

T1: ERα-Gluc2 (estrogen receptor alpha fused to Gluc2) (UniProt P03372 1-595)
T1 construct: not shown: Gaussia luciferase (Gluc), carboxyl-terminal fragment Gluc2, amino acids 94-169
T1 sequence (looked up): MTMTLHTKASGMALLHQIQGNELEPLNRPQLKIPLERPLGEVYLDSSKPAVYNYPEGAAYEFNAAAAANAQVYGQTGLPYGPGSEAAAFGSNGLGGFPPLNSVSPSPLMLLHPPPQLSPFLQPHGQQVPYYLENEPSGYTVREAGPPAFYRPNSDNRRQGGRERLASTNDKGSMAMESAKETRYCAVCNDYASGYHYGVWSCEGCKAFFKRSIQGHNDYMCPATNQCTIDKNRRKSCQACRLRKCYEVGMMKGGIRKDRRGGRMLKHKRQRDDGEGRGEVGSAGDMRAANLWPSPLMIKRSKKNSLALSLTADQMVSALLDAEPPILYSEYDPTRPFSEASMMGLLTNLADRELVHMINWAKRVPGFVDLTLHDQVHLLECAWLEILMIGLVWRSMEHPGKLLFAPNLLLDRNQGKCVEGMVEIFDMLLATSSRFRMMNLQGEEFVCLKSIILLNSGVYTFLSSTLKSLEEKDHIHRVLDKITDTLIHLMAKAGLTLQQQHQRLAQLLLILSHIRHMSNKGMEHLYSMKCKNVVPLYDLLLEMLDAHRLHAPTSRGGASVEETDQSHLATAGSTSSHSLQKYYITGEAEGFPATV

T2: MR-Gluc2 (mineralocorticoid receptor fused to Gluc2) (UniProt P08235 1-984)
T2 construct: not shown: Gaussia luciferase (Gluc), carboxyl-terminal fragment Gluc2, amino acids 94-169
T2 sequence (looked up): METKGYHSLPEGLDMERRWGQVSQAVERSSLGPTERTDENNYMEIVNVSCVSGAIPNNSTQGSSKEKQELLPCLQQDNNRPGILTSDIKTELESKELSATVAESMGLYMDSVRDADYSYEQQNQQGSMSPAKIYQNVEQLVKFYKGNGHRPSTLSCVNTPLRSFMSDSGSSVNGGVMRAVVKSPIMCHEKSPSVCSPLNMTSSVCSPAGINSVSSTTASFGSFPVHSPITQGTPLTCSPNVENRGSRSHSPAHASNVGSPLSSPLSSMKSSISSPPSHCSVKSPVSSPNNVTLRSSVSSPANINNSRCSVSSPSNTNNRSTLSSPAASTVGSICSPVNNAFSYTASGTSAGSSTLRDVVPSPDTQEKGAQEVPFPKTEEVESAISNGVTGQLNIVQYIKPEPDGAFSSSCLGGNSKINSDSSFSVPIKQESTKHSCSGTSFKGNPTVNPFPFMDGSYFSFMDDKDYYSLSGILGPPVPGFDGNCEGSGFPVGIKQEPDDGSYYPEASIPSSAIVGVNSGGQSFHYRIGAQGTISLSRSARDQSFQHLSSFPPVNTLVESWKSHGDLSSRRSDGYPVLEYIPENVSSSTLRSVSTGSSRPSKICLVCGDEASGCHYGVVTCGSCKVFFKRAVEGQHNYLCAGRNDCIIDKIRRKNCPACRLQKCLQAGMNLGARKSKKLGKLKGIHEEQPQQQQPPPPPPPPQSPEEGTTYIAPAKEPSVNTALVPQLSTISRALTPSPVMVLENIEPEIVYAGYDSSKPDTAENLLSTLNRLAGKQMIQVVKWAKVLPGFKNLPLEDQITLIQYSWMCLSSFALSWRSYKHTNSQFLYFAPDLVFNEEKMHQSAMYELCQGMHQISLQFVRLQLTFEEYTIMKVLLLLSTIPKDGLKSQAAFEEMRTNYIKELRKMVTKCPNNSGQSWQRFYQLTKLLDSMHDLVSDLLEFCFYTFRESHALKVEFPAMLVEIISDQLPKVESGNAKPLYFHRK

T3: GR-Gluc2 (full-length glucocorticoid receptor fused at its carboxyl terminus to Gluc2) (human, UniProt P04150 1-777)
T3 construct: domain: full length;range 94-169; Expressed in HEK-293/HEK-293T cells by transfection; also called Gluc2-GR; not shown: Gaussia luciferase (Gluc), carboxyl-terminal fragment Gluc2, amino acids 94-169
T3 sequence (looked up): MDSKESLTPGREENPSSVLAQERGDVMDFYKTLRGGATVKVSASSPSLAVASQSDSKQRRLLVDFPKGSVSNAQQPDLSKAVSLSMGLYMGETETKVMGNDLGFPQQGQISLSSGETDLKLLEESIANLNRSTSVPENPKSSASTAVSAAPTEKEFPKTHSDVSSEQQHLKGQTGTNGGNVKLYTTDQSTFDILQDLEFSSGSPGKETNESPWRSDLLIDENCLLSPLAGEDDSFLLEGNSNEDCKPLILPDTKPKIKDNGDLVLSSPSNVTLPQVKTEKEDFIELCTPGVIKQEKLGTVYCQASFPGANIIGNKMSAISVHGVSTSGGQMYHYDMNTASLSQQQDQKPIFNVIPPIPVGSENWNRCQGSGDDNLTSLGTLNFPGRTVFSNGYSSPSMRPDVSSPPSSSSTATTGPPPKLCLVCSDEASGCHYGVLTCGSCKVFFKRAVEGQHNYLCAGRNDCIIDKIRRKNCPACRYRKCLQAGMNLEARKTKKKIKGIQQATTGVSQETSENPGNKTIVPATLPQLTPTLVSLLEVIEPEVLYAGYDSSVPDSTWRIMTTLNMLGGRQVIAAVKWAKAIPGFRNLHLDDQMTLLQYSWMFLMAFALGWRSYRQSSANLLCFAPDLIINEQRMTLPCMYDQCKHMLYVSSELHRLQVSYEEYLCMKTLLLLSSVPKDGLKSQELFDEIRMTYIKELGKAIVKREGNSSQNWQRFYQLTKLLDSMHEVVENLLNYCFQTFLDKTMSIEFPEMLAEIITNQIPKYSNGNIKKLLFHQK


Key:
[1] = biological target: T1, ERα-Gluc2 (estrogen receptor alpha …); assay: PCA in HEK-293T cells, estradiol 10 nM 60 min (FIG. 8C)
Protocol: (§1) (A) HEK-293T cells (6×10³) were seeded in 96-well plates. […] (B and C) HEK-293T cells (6×10³) were seeded in 96-well plates. […] Cells were then lysed and luminescence was determined.

[2] = biological target: T2, MR-Gluc2 (mineralocorticoid receptor …); assay: PCA in HEK-293T cells, DEX 1 µM 60 min (FIG. 8B)
Protocol: as §1

[3] = biological target: T3, GR-Gluc2 (full-length glucocorticoid …); assay: PCA time course after DEX 1 µM in HEK-293T cells (FIG. 2A)
Protocol: (A) HEK-293T cells (6×10³) were seeded in 96-well plates. […] Luminescence of vehicle-treated cells was used for normalization. […] Images were processed using the Zeiss ZEN2011 software. […] Bars, 20 μm.

[4] = biological target: T3, GR-Gluc2 (full-length glucocorticoid …); assay: PCA in HEK-293T cells, DEX 1 µM or estradiol 10 nM 60 min (FIG. 8D)
Protocol: as §1

[5] = biological target: T3, GR-Gluc2 (full-length glucocorticoid …); assay: PCA in HEK-293T cells, DEX 1 µM with or without RU486 1 µM (FIG. 1C)
Text: EB, empty beads; C, solvent control. Images shown are representative of three biological replicates.
The resulting luminescence was normalized to the signal associated with cells treated with vehicle only.

[6] = biological target: T1, ERα-Gluc2 (estrogen receptor alpha …); assay: PCA in HEK-293T cells, vehicle against estradiol 10 nM 60 min (FIG. 8C)
Protocol: as §1

binding result [1]	binding result [2]	Binder	also measured
no binding	binds	Gluc1-ETV2 (other, UniProt O00321 1-342, looked up, not shown: Gaussia luciferase (Gluc), amino-terminal fragment Gluc1, amino acids 1-93) MDLWNWDEASPQEVPPGNKLAGLEGAKLGFCFPDLALQGDTPTATAETCWKGTSSSLASFPQLDWGSALLHPEVPWGAEPDSQALPWSGDWTDMACTAWDSWSGASQTLGPAPLGPGPIPAAGSEGAAGQNCVPVAGEATSWSRAQAAGSNTSWDCSVGPDGDTYWGSGLGGEPRTDCTISWGGPAGPDCTTSWNPGLHAGGTTSLKRYQSSALTVCSEPSPQSDRASLARCPKTNHRGPIQLWQFLLELLHDGARSSCIRWTGNSREFQLCDPKEVARLWGERKRKPGMNYEKLSRGLRYYYRRDIVRKSGGRKYTYRFGGRVPSLAYPDCAGGGRGAETQ	
no binding	binds	Gluc1-ERG (other, UniProt P11308-3 1-486, looked up, not shown: Gaussia luciferase (Gluc), amino-terminal fragment Gluc1, amino acids 1-93) MIQTVPDPAAHIKEALSVVSEDQSLFECAYGTPHLAKTEMTASSSSDYGQTSKMSPRVPQQDWLSQPPARVTIKMECNPSQVNGSRNSPDECSVAKGGKMVGSPDTVGMNYGSYMEEKHMPPPNMTTNERRVIVPADPTLWSTDHVRQWLEWAVKEYGLPDVNILLFQNIDGKELCKMTKDDFQRLTPSYNADILLSHLHYLRETPLPHLTSDDVDKALQNSPRLMHARNTGGAAFIFPNTSVYPEATQRITTRPDLPYEPPRRSAWTGHGHPTPQSKAAQPSPSTVPKTEDQRPQLDPYQILGPTSSRLANPGSGQIQLWQFLLELLSDSSNSSCITWEGTNGEFKMTDPDEVARRWGERKSKPNMNYDKLSRALRYYYDKNIMTKVHGKRYAYKFDFHGIAQALQPHPPESSLYKYPSDLPYMGSYHAHPQKMNFVAPHPPALPVTSSSFFAAPNPYWNSPTGGIYPNTRLPTSHMPSHLGTYY	binding result [3]: binds
		ERα-Gluc1 (estrogen receptor alpha fused to Gluc1) (receptor, UniProt P03372 1-595, looked up, not shown: Gaussia luciferase (Gluc), amino-terminal fragment Gluc1, amino acids 1-93) MTMTLHTKASGMALLHQIQGNELEPLNRPQLKIPLERPLGEVYLDSSKPAVYNYPEGAAYEFNAAAAANAQVYGQTGLPYGPGSEAAAFGSNGLGGFPPLNSVSPSPLMLLHPPPQLSPFLQPHGQQVPYYLENEPSGYTVREAGPPAFYRPNSDNRRQGGRERLASTNDKGSMAMESAKETRYCAVCNDYASGYHYGVWSCEGCKAFFKRSIQGHNDYMCPATNQCTIDKNRRKSCQACRLRKCYEVGMMKGGIRKDRRGGRMLKHKRQRDDGEGRGEVGSAGDMRAANLWPSPLMIKRSKKNSLALSLTADQMVSALLDAEPPILYSEYDPTRPFSEASMMGLLTNLADRELVHMINWAKRVPGFVDLTLHDQVHLLECAWLEILMIGLVWRSMEHPGKLLFAPNLLLDRNQGKCVEGMVEIFDMLLATSSRFRMMNLQGEEFVCLKSIILLNSGVYTFLSSTLKSLEEKDHIHRVLDKITDTLIHLMAKAGLTLQQQHQRLAQLLLILSHIRHMSNKGMEHLYSMKCKNVVPLYDLLLEMLDAHRLHAPTSRGGASVEETDQSHLATAGSTSSHSLQKYYITGEAEGFPATV	binding result [4]: binds
no binding		Gluc1-ETV4 (other, UniProt P43268 1-484, looked up, not shown: Gaussia luciferase (Gluc), amino-terminal fragment Gluc1, amino acids 1-93) MERRMKAGYLDQQVPYTFSSKSPGNGSLREALIGPLGKLMDPGSLPPLDSEDLFQDLSHFQETWLAEAQVPDSDEQFVPDFHSENLAFHSPTTRIKKEPQSPRTDPALSCSRKPPLPYHHGEQCLYSSAYDPPRQIAIKSPAPGALGQSPLQPFPRAEQRNFLRSSGTSQPHPGHGYLGEHSSVFQQPLDICHSFTSQGGGREPLPAPYQHQLSEPCPPYPQQSFKQEYHDPLYEQAGQPAVDQGGVNGHRYPGAGVVIKQEQTDFAYDSDVTGCASMYLHTEGFSGPSPGDGAMGYGYEKPLRPFPDDVCVVPEKFEGDIKQEGVGAFREGPPYQRRGALQLWQFLVALLDDPTNAHFIAWTGRGMEFKLIEPEEVARLWGIQKNRPAMNYDKLSRSLRYYYEKGIMQKVAGERYVYKFVCEPEALFSLAFPDNQRPALKAEFDRPVSEEDTVPLSHLDESPAYLPELAGPAQPFGPKGGYSY	binding result [5]: binds
		Gluc1-ELF3 (other, UniProt P78545 1-371, looked up, not shown: Gaussia luciferase (Gluc), amino-terminal fragment Gluc1, amino acids 1-93) MAATCEISNIFSNYFSAMYSSEDSTLASVPPAATFGADDLVLTLSNPQMSLEGTEKASWLGEQPQFWSKTQVLDWISYQVEKNKYDASAIDFSRCDMDGATLCNCALEELRLVFGPLGDQLHAQLRDLTSSSSDELSWIIELLEKDGMAFQEALDPGPFDQGSPFAQELLDDGQQASPYHPGSCGAGAPSPGSSDVSTAGTGASRSSHSSDSGGSDVDLDPTDGKLFPSDGFRDCKKGDPKHGKRKRGRPRKLSKEYWDCLEGKKSKHAPRGTHLWEFIRDILIHPELNEGLMKWENRHEGVFKFLRSEAVAQLWGQKKKNSNMTYEKLSRAMRYYYKREILERVDGRRLVYKFGKNSSGWKEEEVLQSRN	binding result [6]: binds
no binding		Gluc1-FLI1 (full-length FLI1 fused downstream of Gluc1) (other, UniProt Q01543 1-452, looked up, range 1-93;domain: full length; also called FiI1; not shown: Gaussia luciferase (Gluc), amino-terminal fragment Gluc1, amino acids 1-93) MDGTIKEALSVVSDDQSLFDSAYGAAAHLPKADMTASGSPDYGQPHKINPLPPQQEWINQPVRVNVKREYDHMNGSRESPVDCSVSKCSKLVGGGESNPMNYNSYMDEKNGPPPPNMTTNERRVIVPADPTLWTQEHVRQWLEWAIKEYSLMEIDTSFFQNMDGKELCKMNKEDFLRATTLYNTEVLLSHLSYLRESSLLAYNTTSHTDQSSRLSVKEDPSYDSVRRGAWGNNMNSGLNKSPPLGGAQTISKNTEQRPQPDPYQILGPTSSRLANPGSGQIQLWQFLLELLSDSANASCITWEGTNGEFKMTDPDEVARRWGERKSKPNMNYDKLSRALRYYYDKNIMTKVHGKRYAYKFDFHGIAQALQPHPTESSMYKYPSDISYMPSYHAHQQKVNFVPPHPSSMPVTSSSFFGAASQYWTSPTGGIYPNPNVPRHPNTHVPSHLGSYY	
